# Data as given in the Human Domainome abundance scans (Beltran et al. 2025).
# ± gives the uncertainty stated by the source.
# B1: Homeobox protein cut-like 1, residues 941 to 1008; numbered along this chain, P39880 (parent)
# chain: QEVDTIELTRQVKEKLAKNGICQRIFGEKVLGLSQGSVSDMLSRPKPWSKLTQKGREPFIRMQLWLNG
# Variants of: B1
# Assay: abundance fitness (aPCA) (normalised: wild type 0, dead -1); higher = more abundant; growth selection in yeast, the domain comes from the species named
# Conditions: Homo sapiens
row,Variant,abundance fitness
1,R10C,-0.22 ± 0.083
2,R10F,-0.307 ± 0.098
3,R10I,-0.301 ± 0.094
4,R10A,-0.096 ± 0.063
5,R10Y,-0.306 ± 0.11
6,R10H,-0.226 ± 0.12
7,R10N,0.036 ± 0.097
8,R10K,0.074 ± 0.073
9,R10P,-0.157 ± 0.075
10,R10Q,-0.135 ± 0.068
11,R10D,-0.112 ± 0.11
12,R10S,-0.111 ± 0.055
13,R10W,-0.509 ± 0.067
14,R10L,-0.246 ± 0.049
15,R10E,-0.056 ± 0.088
16,R10G,-0.089 ± 0.047
17,V12Q,-0.143 ± 0.083
18,V12F,-0.289 ± 0.077
19,V12K,-0.183 ± 0.086
20,V12P,-0.008 ± 0.065
21,V12A,-0.171 ± 0.055
22,V12L,-0.359 ± 0.05
23,V12E,-0.113 ± 0.069
24,V12M,-0.084 ± 0.095

row,Variant,abundance fitness
1,V12G,-0.01 ± 0.063
2,V12D,-0.049 ± 0.079
3,V12H,-0.142 ± 0.11
4,V12S,-0.091 ± 0.059
5,V12W,-0.226 ± 0.072
6,V12T,-0.177 ± 0.062
7,V12R,-0.131 ± 0.052
8,V12I,-0.338 ± 0.074
9,V12N,-0.28 ± 0.11
10,V12C,-0.461 ± 0.35
11,I6A,0.076 ± 0.062
12,I6Y,-0.129 ± 0.081
13,I6R,-0.053 ± 0.045
14,I6H,-0.005 ± 0.095
15,I6N,-0.09 ± 0.1
16,I6C,-0.091 ± 0.08
17,I6K,0.089 ± 0.068
18,I6W,-0.368 ± 0.074
19,I6D,-0.268 ± 0.13
20,I6S,-0.259 ± 0.053
21,I6G,-0.049 ± 0.063
22,I6V,-0.046 ± 0.061
23,I6L,-0.161 ± 0.045
24,I6F,-0.081 ± 0.073

row,Variant,abundance fitness
1,I6T,-0.029 ± 0.062
2,I6M,0.06 ± 0.059
3,E7S,0.172 ± 0.3
4,E7I,-0.565 ± 0.37
5,E7A,0.14 ± 0.47
6,E2I,-0.085 ± 0.031
7,E2Y,-0.329 ± 0.03
8,E2R,-0.157 ± 0.027
9,E2A,-0.273 ± 0.027
10,E2N,-0.227 ± 0.031
11,E2P,-0.206 ± 0.028
12,E2S,-0.135 ± 0.027
13,E2L,-0.376 ± 0.026
14,E2G,-0.081 ± 0.027
15,E2C,-0.375 ± 0.033
16,E2Q,-0.093 ± 0.029
17,E2D,-0.283 ± 0.031
18,E2V,-0.16 ± 0.026
19,E2W,-0.738 ± 0.033
20,E2K,-0.074 ± 0.029
21,E2H,-0.317 ± 0.032
22,E2M,-0.09 ± 0.029
23,Q11N,-0.234 ± 0.095
24,Q11C,-0.323 ± 0.064

row,Variant,abundance fitness
1,Q11A,-0.13 ± 0.067
2,Q11V,-0.274 ± 0.057
3,Q11P,-0.092 ± 0.077
4,Q11K,0.132 ± 0.077
5,Q11D,-0.298 ± 0.096
6,Q11S,-0.152 ± 0.047
7,Q11L,-0.125 ± 0.046
8,Q11I,-0.308 ± 0.099
9,Q11W,-0.448 ± 0.058
10,Q11G,-0.165 ± 0.057
11,Q11H,-0.114 ± 0.086
12,Q11T,-0.142 ± 0.061
13,Q11R,-0.084 ± 0.039
14,T5S,-0.177 ± 0.056
15,T5R,-0.157 ± 0.046
16,T5Q,-0.086 ± 0.065
17,T5D,-0.412 ± 0.092
18,T5M,-0.02 ± 0.067
19,T5H,-0.145 ± 0.14
20,T5Y,-0.192 ± 0.12
21,T5K,-0.121 ± 0.066
22,T5W,-0.176 ± 0.06
23,T5C,-0.233 ± 0.088
24,T5I,-0.177 ± 0.11

row,Variant,abundance fitness
1,T5P,-0.354 ± 0.066
2,T5N,-0.223 ± 0.13
3,T5V,-0.383 ± 0.049
4,T5F,-0.235 ± 0.11
5,T5E,-0.204 ± 0.066
6,T5A,-0.253 ± 0.048
7,T5L,-0.135 ± 0.045
8,T5G,-0.329 ± 0.05
9,L8T,0.003 ± 0.062
10,L8Q,-0.032 ± 0.075
11,L8S,-0.002 ± 0.051
12,L8P,-0.007 ± 0.062
13,L8A,0.051 ± 0.069
14,L8I,0.131 ± 0.096
15,L8D,0.076 ± 0.11
16,L8V,0.038 ± 0.064
17,L8W,-0.157 ± 0.078
18,L8K,0.04 ± 0.078
19,L8E,0.011 ± 0.083
20,L8R,-0.01 ± 0.055
21,L8C,-0.205 ± 0.094
22,L8F,-0.152 ± 0.067
23,L8G,0.039 ± 0.081
24,L8M,0.019 ± 0.06

row,Variant,abundance fitness
1,L8N,0.011 ± 0.092
2,L8Y,-0.089 ± 0.089
3,T9P,-0.28 ± 0.068
4,T9R,-0.212 ± 0.049
5,T9H,-0.142 ± 0.12
6,T9E,-0.191 ± 0.089
7,T9I,-0.113 ± 0.086
8,T9S,-0.149 ± 0.053
9,T9G,-0.047 ± 0.063
10,T9Y,-0.577 ± 0.13
11,T9W,-0.197 ± 0.074
12,T9M,-0.384 ± 0.069
13,T9N,-0.348 ± 0.15
14,T9C,-0.087 ± 0.093
15,T9L,-0.405 ± 0.046
16,T9K,-0.109 ± 0.079
17,T9A,0.026 ± 0.063
18,T9D,-0.168 ± 0.14
19,D4V,-0.581 ± 0.052
20,D4T,-0.25 ± 0.057
21,D4Q,-0.328 ± 0.061
22,D4E,-0.093 ± 0.068
23,D4L,-0.572 ± 0.048
24,D4C,-0.243 ± 0.12

row,Variant,abundance fitness
1,D4M,-0.153 ± 0.056
2,D4G,-0.312 ± 0.066
3,D4I,-0.503 ± 0.095
4,D4F,-0.35 ± 0.072
5,D4P,-0.265 ± 0.062
6,D4R,-0.368 ± 0.06
7,D4W,-0.552 ± 0.078
8,D4S,-0.261 ± 0.05
9,D4Y,-0.43 ± 0.074
10,D4A,-0.376 ± 0.05
11,D4H,-0.346 ± 0.077
12,D4N,-0.097 ± 0.067
13,Q1C,-0.062 ± 0.13
14,Q1S,0.045 ± 0.076
15,Q1R,-0.046 ± 0.052
16,Q1V,-0.201 ± 0.088
17,Q1Y,-0.34 ± 0.13
18,Q1T,-0.038 ± 0.076
19,Q1G,0.06 ± 0.086
20,Q1P,-0.277 ± 0.086
21,Q1F,-0.088 ± 0.2
22,Q1A,0.167 ± 0.1
23,Q1E,0.214 ± 0.091
